Experimental data reported in patent US20140179604A1 (U S A REPRESENTED BY THE DEPARTMENT OF VETERANS AFFAIRS, published 2014).
Values belong to the molecule of their own block, whether it stands above or below them. Non-standard residues stand in square brackets, D forms with d. No end group written: not given here. *: point of attachment. Desaminotyrosyl = O=C(CCc1ccc(O)cc1)*; NMeY = CN[C@@H](Cc1ccc(O)cc1)C(=O)O; hArg = N=C(N)NCCCC[C@H](N)C(=O)O; Nle = CCCC[C@H](N)C(=O)O; Orn = NCCC[C@H](N)C(=O)O; Abu = CC[C@H](N)C(=O)O; Aoc = NCCCCCCCC(=O)O; Ava = NCCCCC(=O)O

Legend:
[1] = molecular target: T1, GHRH receptor (membrane receptors of human anterior pituitary cells) (human) (UniProt Q02643); assay: competition with 125I-JV-1-42, human pituitary membranes
T1 sequence (looked up): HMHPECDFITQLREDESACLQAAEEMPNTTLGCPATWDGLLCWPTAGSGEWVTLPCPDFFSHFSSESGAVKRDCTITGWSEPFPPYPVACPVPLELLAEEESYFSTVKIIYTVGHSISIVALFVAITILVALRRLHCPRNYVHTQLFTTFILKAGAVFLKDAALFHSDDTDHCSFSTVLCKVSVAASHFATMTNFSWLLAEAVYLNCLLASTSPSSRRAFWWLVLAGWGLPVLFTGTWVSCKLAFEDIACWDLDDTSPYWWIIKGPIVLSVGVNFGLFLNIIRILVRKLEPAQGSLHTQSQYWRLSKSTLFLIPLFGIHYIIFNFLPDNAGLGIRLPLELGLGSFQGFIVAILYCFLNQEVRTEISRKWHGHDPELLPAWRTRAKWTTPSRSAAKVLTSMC

[2] = molecular target: T1, GHRH receptor (membrane receptors of human anterior pituitary cells) (human); assay: competition with 125I-[His1,Nle27]hGHRH(1-32)NH2, human pituitary membranes
[3] = molecular target: T2, GHRH receptor (membrane receptors of human anterior pituitary cells) (human, UniProt Q02643 23-423); assay: competition with [His1,125I-Tyr10,Nle27]hGHRH(1-32)NH2, human pituitary membranes
T2 construct: whole, on cells; Native receptor in a membrane fraction of purchased normal human pituitaries, not intact cells; also called hGHRH receptor; human pituitary membrane homogenates
T2 sequence (looked up): T1 sequence (looked up)
Description: Normal human pituitaries were purchased from the National Hormone and Peptide Program (A. F. Parlow, Los Angeles, County Harbor—UCLA Medical Center, Torrance, Calif.).

Molecule: P-27404 [N-Me-Tyr^1, D-Ala^2, Fpa5^6, Orn^12, Abu^15, Orn^21, Nle^27, Asp^28]hGHRH(1-29)NH-CH3 (peptide)
IC50 [1]: 0.87 nM | Relative affinity (Binding potency) vs JI-38 [1]: 5 JI-38 = 1 | IC50 [2]: 1.12 nM | Relative affinity (Binding potency) compared to JI-38 [2]: 2.45 JI-38 = 1 | Relative affinity (Binding potency) compared to hGHRH(1-29) (hGHRH(1-29)NH2 = 1) [2]: 6.83

B2: P-23252 [Dat^1-D-Ala^2, Orn^12, Abu^15, Orn^21, Nle^27, Asp^28, Har^30]hGHRH(1-30)NH2 (peptide)
peptide: [Desaminotyrosyl][dA]DAIFTNSYR[Orn]VL[Abu]QLSAR[Orn]LLQDI[Nle]DR[hArg]-NH2
SMILES: CCCC[C@H](NC(=O)[C@@H](NC(=O)[C@H](CC(=O)O)NC(=O)[C@H](CCC(N)=O)NC(=O)[C@H](CC(C)C)NC(=O)[C@H](CC(C)C)NC(=O)[C@H](CCCN)NC(=O)[C@H](CCCNC(=N)N)NC(=O)[C@H](C)NC(=O)[C@H](CO)NC(=O)[C@H](CC(C)C)NC(=O)[C@H](CCC(N)=O)NC(=O)[C@H](CC)NC(=O)[C@H](CC(C)C)NC(=O)[C@@H](NC(=O)[C@H](CCCN)NC(=O)[C@H](CCCNC(=N)N)NC(=O)[C@H](Cc1ccc(O)cc1)NC(=O)[C@H](CO)NC(=O)[C@H](CC(N)=O)NC(=O)[C@@H](NC(=O)[C@H](Cc1ccccc1)NC(=O)[C@@H](NC(=O)[C@H](C)NC(=O)[C@H](CC(=O)O)NC(=O)[C@@H](C)NC(=O)CCc1ccc(O)cc1)[C@@H](C)CC)[C@@H](C)O)C(C)C)[C@@H](C)CC)C(=O)N[C@@H](CC(=O)O)C(=O)N[C@@H](CCCNC(=N)N)C(=O)N[C@@H](CCCCNC(=N)N)C(N)=O
notes: also called Peptide 23252
IC50 [3]: 0.14 nM | Relative affinity (Binding potency) vs GHRH [3]: 42.3 GHRH(1-29) = 1 | Relative affinity (Binding potency) vs JI-38 [3]: 13.9 JI-38 = 1

B3: P-21304 [Dat^1, D-Ala^2, Gln^8, Orn^12, Abu^15, Orn^21, Nle^27, Asp^28, Amc^30]hGHRH(1-30)NH2 (peptide)
peptide: [Desaminotyrosyl][dA]DAIFTQSYR[Orn]VL[Abu]QLSAR[Orn]LLQDI[Nle]DR[Aoc]-NH2
SMILES: CCCC[C@H](NC(=O)[C@@H](NC(=O)[C@H](CC(=O)O)NC(=O)[C@H](CCC(N)=O)NC(=O)[C@H](CC(C)C)NC(=O)[C@H](CC(C)C)NC(=O)[C@H](CCCN)NC(=O)[C@H](CCCNC(=N)N)NC(=O)[C@H](C)NC(=O)[C@H](CO)NC(=O)[C@H](CC(C)C)NC(=O)[C@H](CCC(N)=O)NC(=O)[C@H](CC)NC(=O)[C@H](CC(C)C)NC(=O)[C@@H](NC(=O)[C@H](CCCN)NC(=O)[C@H](CCCNC(=N)N)NC(=O)[C@H](Cc1ccc(O)cc1)NC(=O)[C@H](CO)NC(=O)[C@H](CCC(N)=O)NC(=O)[C@@H](NC(=O)[C@H](Cc1ccccc1)NC(=O)[C@@H](NC(=O)[C@H](C)NC(=O)[C@H](CC(=O)O)NC(=O)[C@@H](C)NC(=O)CCc1ccc(O)cc1)[C@@H](C)CC)[C@@H](C)O)C(C)C)[C@@H](C)CC)C(=O)N[C@@H](CC(=O)O)C(=O)N[C@@H](CCCNC(=N)N)C(=O)NCCCCCCCC(N)=O
notes: also called Peptide 21304
IC50 [3]: 0.08 nM | Relative affinity (Binding potency) vs GHRH [3]: 74 GHRH(1-29) = 1 | Relative affinity (Binding potency) vs JI-38 [3]: 24.4 JI-38 = 1

Molecule: [NMeY]ADAIFTQSYR[Orn]VL[Abu]QLSAR[Orn]LLQDI[Nle]DR-NHMe (peptide, from a related filing) [P-27406 [N-Me-Tyr^1, Gln^8, Orn^12, Abu^15, Orn^21, Nle^27, Asp^28]hGHRH(1-29)NH-CH3]
IC50 [1]: 0.3 nM | Relative affinity (Binding potency) vs JI-38 [1]: 14.5 JI-38 = 1 | IC50 [2]: 0.93 nM | Relative affinity (Binding potency) compared to JI-38 [2]: 2.95 JI-38 = 1 | Relative affinity (Binding potency) compared to hGHRH(1-29) (hGHRH(1-29)NH2 = 1) [2]: 8.22

B4: P-27407 [Dat^1, Gln^8, Orn^12, Abu^15, Orn^21, Nle^27, Asp^28]hGHRH(1-29)NH-CH3 (peptide, from a related filing)
peptide: [Desaminotyrosyl]ADAIFTQSYR[Orn]VL[Abu]QLSAR[Orn]LLQDI[Nle]DR-NHMe
SMILES: CCCC[C@H](NC(=O)[C@@H](NC(=O)[C@H](CC(=O)O)NC(=O)[C@H](CCC(N)=O)NC(=O)[C@H](CC(C)C)NC(=O)[C@H](CC(C)C)NC(=O)[C@H](CCCN)NC(=O)[C@H](CCCNC(=N)N)NC(=O)[C@H](C)NC(=O)[C@H](CO)NC(=O)[C@H](CC(C)C)NC(=O)[C@H](CCC(N)=O)NC(=O)[C@H](CC)NC(=O)[C@H](CC(C)C)NC(=O)[C@@H](NC(=O)[C@H](CCCN)NC(=O)[C@H](CCCNC(=N)N)NC(=O)[C@H](Cc1ccc(O)cc1)NC(=O)[C@H](CO)NC(=O)[C@H](CCC(N)=O)NC(=O)[C@@H](NC(=O)[C@H](Cc1ccccc1)NC(=O)[C@@H](NC(=O)[C@H](C)NC(=O)[C@H](CC(=O)O)NC(=O)[C@H](C)NC(=O)CCc1ccc(O)cc1)[C@@H](C)CC)[C@@H](C)O)C(C)C)[C@@H](C)CC)C(=O)N[C@@H](CC(=O)O)C(=O)N[C@@H](CCCNC(=N)N)C(=O)NC
IC50 [1]: 3 nM | Relative affinity (Binding potency) vs JI-38 [1]: 1.45 JI-38 = 1 | IC50 [2]: 5.01 nM | Relative affinity (Binding potency) compared to JI-38 [2]: 0.54 JI-38 = 1 | Relative affinity (Binding potency) compared to hGHRH(1-29) (hGHRH(1-29)NH2 = 1) [2]: 1.52

Continued, values first:

IC50 [1]: 1.99 nM | Relative affinity (Binding potency) vs JI-38 [1]: 2.18 JI-38 = 1 | IC50 [2]: 2.04 nM | Relative affinity (Binding potency) compared to JI-38 [2]: 1.34 JI-38 = 1 | Relative affinity (Binding potency) compared to hGHRH(1-29) (hGHRH(1-29)NH2 = 1) [2]: 3.75
B1: P-22327 [Dat^1, Gln^8, Orn^12, Abu^15, Orn^21, Nle^27, Asp^28, Apa^30]hGHRH(1-30)NH2 (peptide, from a related filing)
peptide: [Desaminotyrosyl]ADAIFTQSYR[Orn]VL[Abu]QLSAR[Orn]LLQDI[Nle]DR[Ava]-NH2
SMILES: CCCC[C@H](NC(=O)[C@@H](NC(=O)[C@H](CC(=O)O)NC(=O)[C@H](CCC(N)=O)NC(=O)[C@H](CC(C)C)NC(=O)[C@H](CC(C)C)NC(=O)[C@H](CCCN)NC(=O)[C@H](CCCNC(=N)N)NC(=O)[C@H](C)NC(=O)[C@H](CO)NC(=O)[C@H](CC(C)C)NC(=O)[C@H](CCC(N)=O)NC(=O)[C@H](CC)NC(=O)[C@H](CC(C)C)NC(=O)[C@@H](NC(=O)[C@H](CCCN)NC(=O)[C@H](CCCNC(=N)N)NC(=O)[C@H](Cc1ccc(O)cc1)NC(=O)[C@H](CO)NC(=O)[C@H](CCC(N)=O)NC(=O)[C@@H](NC(=O)[C@H](Cc1ccccc1)NC(=O)[C@@H](NC(=O)[C@H](C)NC(=O)[C@H](CC(=O)O)NC(=O)[C@H](C)NC(=O)CCc1ccc(O)cc1)[C@@H](C)CC)[C@@H](C)O)C(C)C)[C@@H](C)CC)C(=O)N[C@@H](CC(=O)O)C(=O)N[C@@H](CCCNC(=N)N)C(=O)NCCCCC(N)=O

IC50 [1]: 1.08 nM | Relative affinity (Binding potency) vs JI-38 [1]: 4.03 JI-38 = 1 | IC50 [2]: 2.51 nM | Relative affinity (Binding potency) compared to JI-38 [2]: 1.09 JI-38 = 1 | Relative affinity (Binding potency) compared to hGHRH(1-29) (hGHRH(1-29)NH2 = 1) [2]: 3.04
Molecule: [NMeY]ADAIFTQSYR[Orn]VL[Abu]QLSAR[Orn]LLQDI[Nle]SR-NHMe (peptide, from a related filing) [P-27405 [N-Me-Tyr^1, Gln^8, Orn^12, Abu^15, Orn^21, Nle^27]hGHRH(1-29)NH-CH3]

IC50 [1]: 2.45 nM | Relative affinity (Binding potency) vs JI-38 [1]: 1.78 JI-38 = 1
B5: P-27413 [Dat^1, Gln^8, His^11, Orn^12, Abu^15, His^20, Orn^21, Nle^27, Asp^28]hGHRH(1-29)NH-CH3 (peptide, from a related filing)
peptide: [Desaminotyrosyl]ADAIFTQSYH[Orn]VL[Abu]QLSAH[Orn]LLQDI[Nle]DR-NHMe
SMILES: CCCC[C@H](NC(=O)[C@@H](NC(=O)[C@H](CC(=O)O)NC(=O)[C@H](CCC(N)=O)NC(=O)[C@H](CC(C)C)NC(=O)[C@H](CC(C)C)NC(=O)[C@H](CCCN)NC(=O)[C@H](Cc1c[nH]cn1)NC(=O)[C@H](C)NC(=O)[C@H](CO)NC(=O)[C@H](CC(C)C)NC(=O)[C@H](CCC(N)=O)NC(=O)[C@H](CC)NC(=O)[C@H](CC(C)C)NC(=O)[C@@H](NC(=O)[C@H](CCCN)NC(=O)[C@H](Cc1c[nH]cn1)NC(=O)[C@H](Cc1ccc(O)cc1)NC(=O)[C@H](CO)NC(=O)[C@H](CCC(N)=O)NC(=O)[C@@H](NC(=O)[C@H](Cc1ccccc1)NC(=O)[C@@H](NC(=O)[C@H](C)NC(=O)[C@H](CC(=O)O)NC(=O)[C@H](C)NC(=O)CCc1ccc(O)cc1)[C@@H](C)CC)[C@@H](C)O)C(C)C)[C@@H](C)CC)C(=O)N[C@@H](CC(=O)O)C(=O)N[C@@H](CCCNC(=N)N)C(=O)NC
